Series [1] concerns the target MBD2 MBD (Homo sapiens, UniProt Q9UBB5 143-220). Kind of series: ITC.
Series [2] has as its target MeCP2 MBD (Homo sapiens, UniProt P51608 80-164). As to the kind of experiment: ITC.
In series [3] the target is T1, MBD1 MBD (Homo sapiens, UniProt Q9UIS9 1-77).
T1 sequence: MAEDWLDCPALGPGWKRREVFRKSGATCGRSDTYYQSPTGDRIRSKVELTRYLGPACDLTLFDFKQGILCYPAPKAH
As to the kind of experiment: ITC.

Series [4] concerns the target MBD4 MBD (Homo sapiens, UniProt O95243 55-152). As to the kind of experiment: ITC.
The target of series [5] is MBD3 MBD (Homo sapiens, UniProt O95983 1-71). Kind of series: ITC.
Sequence of MBD3 MBD (O95983 1-71): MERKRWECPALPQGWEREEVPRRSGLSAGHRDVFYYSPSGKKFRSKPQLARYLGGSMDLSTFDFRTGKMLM
Series [6] addresses MBD3 MBD (crystallization) (Homo sapiens, UniProt O95983 1-71). As to the kind of experiment: crystal structure.
The target of series [7] is MBD2 MBD R166A (Homo sapiens, UniProt Q9UBB5 143-220, R166A). Kind of series: ITC.
Sequence of MBD2 MBD R166A (Q9UBB5 143-220 R166A): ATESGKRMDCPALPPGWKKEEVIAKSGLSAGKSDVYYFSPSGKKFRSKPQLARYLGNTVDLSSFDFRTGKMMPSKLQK
In series [8] the target is MBD2 MBD R188A (Homo sapiens, UniProt Q9UBB5 143-220, R188A). Kind of series: ITC.
Sequence of MBD2 MBD R188A (Q9UBB5 143-220 R188A): as the sequence (Q9UBB5 143-220 R166A) above, with A24R, R46A counted along it

Sequence of MBD2 MBD (Q9UBB5 143-220): as the sequence (Q9UBB5 143-220 R166A) above, with A24R counted along it
Sequence of MeCP2 MBD (P51608 80-164): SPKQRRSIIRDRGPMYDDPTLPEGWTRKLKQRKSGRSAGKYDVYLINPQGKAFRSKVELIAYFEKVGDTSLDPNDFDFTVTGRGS
Sequence of MBD4 MBD (O95243 55-152): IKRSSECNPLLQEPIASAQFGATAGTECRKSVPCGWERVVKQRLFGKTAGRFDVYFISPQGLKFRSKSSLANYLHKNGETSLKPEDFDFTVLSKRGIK
Sequence of MBD3 MBD (crystallization) (O95983 1-71): as the sequence (O95983 1-71) above

B1: hmCG (dsDNA)
DNA 1: GCCAGCGCTGGC
DNA 2: GCCAGCGCTGGC
modifications: 5hmC at position 6 of both strands
With B1, the results for the Kd in series [1] and in series [2] were 9700 ± 2300 nM and 32000 ± 4000 nM, respectively.

B2: AmCGT (mCG) (dsDNA)
DNA 1: GCCAACGTTGGC
DNA 2: GCCAACGTTGGC
modifications: 5mC at position 6 of both strands
As for B2, the Kd in series [3] came out at 1000 ± 100 nM; in series [1] it was 900 ± 200 nM; in series [4], 400 ± 100 nM; in series [5] it was 5400 ± 1200 nM; in series [2] it was 1200 ± 200 nM.

B3: AmCGC (dsDNA)
DNA 1: GCCAACGCTGGC
DNA 2: GCCAGCGTTGGC
modifications: 5mC at position 6 of both strands
As for B3, the binding result in series [6] is given as “binds”.

B4: GmCGC (dsDNA)
DNA 1: GCCAGCGCTGGC
DNA 2: GCCAGCGCTGGC
modifications: 5mC at position 6 of both strands
Consider B4, for which the binding result in series [7] is recorded as “no binding”. The Kd in series [8] was determined as 5600 ± 500 nM; in series [5], 5200 ± 500 nM.

B5: mCG/TG (dsDNA)
DNA 1: GTCAACGTTACG
DNA 2: CGTAATGTTGAC
modifications: 5mC at position 6 of strand 1
Consider B5, for which the Kd in series [3] turned out to be 2200 ± 300 nM; in series [1], 1600 ± 200 nM; in series [4], 1500 ± 300 nM; in series [5], 6500 ± 1200 nM; in series [2], 1200 ± 200 nM.

Values taken from paper doi:10.1101/338061.
